# Measured values as given in PMC4469479.
# Substrate: NCCc1ccc(O)c(O)c1
# Experiment: cells, lysate or membranes
# Settings: other: HEK293S cells; 14C-DA 0.3–60 μM; s.e.m.; pH 7.4
protein,measurement,value
dDATwt (Drosophila melanogaster) (protein) MSPTGHISKSKTPTPHDNDNNSISDERETWSGKVDFLLSVIGFAVDLANVWRFPYLCYKNGGGAFLVPYGIMLVVGGIPLFYMELALGQHNRKGAITCWGRLVPLFKGIGYAVVLIAFYVDFYYNVIIAWSLRFFFASFTNSLPWTSCNNIWNTPNCRPFESQNASRVPVIGNYSDLYAMGNQSLLYNETYMNGSSLDTSAVGHVEGFQSAASEYFNRYILELNRSEGIHDLGAIKWDMALCLLIVYLICYFSLWKGISTSGKVVWFTALFPYAVLLILLIRGLTLPGSFLGIQYYLTPNFSAIYKAEVWVDAATQVFFSLGPGFGVLLAYASYNKYHNNVYKDALLTSFINSATSFIAGFVIFSVLGYMAHTLGVRIEDVATEGPGLVFVVYPAAIATMPASTFWALIFFMMLLTLGLDSSFGGSEAIITALSDEFPKIKRNRELFVAGLFSLYFVVGLASCTQGGFYFFHLLDRYAAGYSILVAVFFEAIAVSWIYGTNRFSEDIRDMIGFPPGRYWQVCWRFVAPIFLLFITVYGLIGYEPLTYADYVYPSWANALGWCIAGSSVVMIPAVAIFKLLSTPGSLRQRFTILTTPWRDQQSMAMVLNGVTTEVTVVRLTDTETAKEPVDV,Km,2.1 ± 0.7 µM
